code X = not defined here
B1: HBS 1 (peptide)
chain: {code X}-ELARALDQ-NH2
modifications: not fully specified (residue 3, bridges); reading uncertain; also: hydrogen bond surrogate constraint, places not given here

What was measured:
[1] = biological target: coactivator protein p300 (or the homologous CREB binding protein, CBP) (human) (UniProt Q09472); experiment: cell-based or functional assay
[2] = biological target: p300-CH1 (cysteine-histidine rich 1 domain of human coactivator protein p300, amino acid residues 323-423) (human) (UniProt Q09472); experiment: tryptophan fluorescence spectroscopy; reference peptide 3
[3] = biological target: p300-CH1 (cysteine-histidine rich 1 domain of human coactivator protein p300, amino acid residues 323-423) (human) (UniProt Q09472); experiment: tryptophan (Trp403) fluorescence spectroscopy, peptide titrated into 1 µM 15N-labeled p300-CH1
[4] = biological target: p300-CH1 (cysteine-histidine rich 1 domain of human coactivator protein p300, amino acid residues 323-423) (human) (UniProt Q09472); experiment: fluorescence polarization competition; HBS 1 added to preformed complex of 300 nM p300-CH1 and 15 nM Flu-HIF C-TAD
[5] = biological target: p300-CH1 (cysteine-histidine rich 1 domain of human coactivator protein p300, amino acid residues 323-423) (human) (UniProt Q09472); experiment: fluorescence polarization competition: HBS 1 added to the preformed complex of p300-CH1 (300 nM) and Flu-HIF C-TAD (15 nM); displaced ligand: fluorescein-labeled HIF-1α C-TAD786-826
[6] = biological target: coactivator protein p300 (or the homologous CREB binding protein, CBP) (human), Q09472; experiment: cell-based or functional assay
[7] = biological target: p300-CH1 (cysteine-histidine rich 1 domain of human coactivator protein p300, amino acid residues 323-423) (human), Q09472; experiment: tryptophan (Trp403) fluorescence spectroscopy, peptide titrated into 1 µM 15N-labeled p300-CH1
Chain of p300-CH1 (cysteine-histidine rich 1 domain of human coactivator protein p300, amino acid residues 323-423) (human), Q09472 (Q09472 323-423 limits assumed): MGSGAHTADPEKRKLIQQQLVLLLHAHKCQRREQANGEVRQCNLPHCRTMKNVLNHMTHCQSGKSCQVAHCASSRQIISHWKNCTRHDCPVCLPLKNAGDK

Chain of coactivator protein p300 (or the homologous CREB binding protein, CBP) (human) (Q09472 2-2414 limits assumed): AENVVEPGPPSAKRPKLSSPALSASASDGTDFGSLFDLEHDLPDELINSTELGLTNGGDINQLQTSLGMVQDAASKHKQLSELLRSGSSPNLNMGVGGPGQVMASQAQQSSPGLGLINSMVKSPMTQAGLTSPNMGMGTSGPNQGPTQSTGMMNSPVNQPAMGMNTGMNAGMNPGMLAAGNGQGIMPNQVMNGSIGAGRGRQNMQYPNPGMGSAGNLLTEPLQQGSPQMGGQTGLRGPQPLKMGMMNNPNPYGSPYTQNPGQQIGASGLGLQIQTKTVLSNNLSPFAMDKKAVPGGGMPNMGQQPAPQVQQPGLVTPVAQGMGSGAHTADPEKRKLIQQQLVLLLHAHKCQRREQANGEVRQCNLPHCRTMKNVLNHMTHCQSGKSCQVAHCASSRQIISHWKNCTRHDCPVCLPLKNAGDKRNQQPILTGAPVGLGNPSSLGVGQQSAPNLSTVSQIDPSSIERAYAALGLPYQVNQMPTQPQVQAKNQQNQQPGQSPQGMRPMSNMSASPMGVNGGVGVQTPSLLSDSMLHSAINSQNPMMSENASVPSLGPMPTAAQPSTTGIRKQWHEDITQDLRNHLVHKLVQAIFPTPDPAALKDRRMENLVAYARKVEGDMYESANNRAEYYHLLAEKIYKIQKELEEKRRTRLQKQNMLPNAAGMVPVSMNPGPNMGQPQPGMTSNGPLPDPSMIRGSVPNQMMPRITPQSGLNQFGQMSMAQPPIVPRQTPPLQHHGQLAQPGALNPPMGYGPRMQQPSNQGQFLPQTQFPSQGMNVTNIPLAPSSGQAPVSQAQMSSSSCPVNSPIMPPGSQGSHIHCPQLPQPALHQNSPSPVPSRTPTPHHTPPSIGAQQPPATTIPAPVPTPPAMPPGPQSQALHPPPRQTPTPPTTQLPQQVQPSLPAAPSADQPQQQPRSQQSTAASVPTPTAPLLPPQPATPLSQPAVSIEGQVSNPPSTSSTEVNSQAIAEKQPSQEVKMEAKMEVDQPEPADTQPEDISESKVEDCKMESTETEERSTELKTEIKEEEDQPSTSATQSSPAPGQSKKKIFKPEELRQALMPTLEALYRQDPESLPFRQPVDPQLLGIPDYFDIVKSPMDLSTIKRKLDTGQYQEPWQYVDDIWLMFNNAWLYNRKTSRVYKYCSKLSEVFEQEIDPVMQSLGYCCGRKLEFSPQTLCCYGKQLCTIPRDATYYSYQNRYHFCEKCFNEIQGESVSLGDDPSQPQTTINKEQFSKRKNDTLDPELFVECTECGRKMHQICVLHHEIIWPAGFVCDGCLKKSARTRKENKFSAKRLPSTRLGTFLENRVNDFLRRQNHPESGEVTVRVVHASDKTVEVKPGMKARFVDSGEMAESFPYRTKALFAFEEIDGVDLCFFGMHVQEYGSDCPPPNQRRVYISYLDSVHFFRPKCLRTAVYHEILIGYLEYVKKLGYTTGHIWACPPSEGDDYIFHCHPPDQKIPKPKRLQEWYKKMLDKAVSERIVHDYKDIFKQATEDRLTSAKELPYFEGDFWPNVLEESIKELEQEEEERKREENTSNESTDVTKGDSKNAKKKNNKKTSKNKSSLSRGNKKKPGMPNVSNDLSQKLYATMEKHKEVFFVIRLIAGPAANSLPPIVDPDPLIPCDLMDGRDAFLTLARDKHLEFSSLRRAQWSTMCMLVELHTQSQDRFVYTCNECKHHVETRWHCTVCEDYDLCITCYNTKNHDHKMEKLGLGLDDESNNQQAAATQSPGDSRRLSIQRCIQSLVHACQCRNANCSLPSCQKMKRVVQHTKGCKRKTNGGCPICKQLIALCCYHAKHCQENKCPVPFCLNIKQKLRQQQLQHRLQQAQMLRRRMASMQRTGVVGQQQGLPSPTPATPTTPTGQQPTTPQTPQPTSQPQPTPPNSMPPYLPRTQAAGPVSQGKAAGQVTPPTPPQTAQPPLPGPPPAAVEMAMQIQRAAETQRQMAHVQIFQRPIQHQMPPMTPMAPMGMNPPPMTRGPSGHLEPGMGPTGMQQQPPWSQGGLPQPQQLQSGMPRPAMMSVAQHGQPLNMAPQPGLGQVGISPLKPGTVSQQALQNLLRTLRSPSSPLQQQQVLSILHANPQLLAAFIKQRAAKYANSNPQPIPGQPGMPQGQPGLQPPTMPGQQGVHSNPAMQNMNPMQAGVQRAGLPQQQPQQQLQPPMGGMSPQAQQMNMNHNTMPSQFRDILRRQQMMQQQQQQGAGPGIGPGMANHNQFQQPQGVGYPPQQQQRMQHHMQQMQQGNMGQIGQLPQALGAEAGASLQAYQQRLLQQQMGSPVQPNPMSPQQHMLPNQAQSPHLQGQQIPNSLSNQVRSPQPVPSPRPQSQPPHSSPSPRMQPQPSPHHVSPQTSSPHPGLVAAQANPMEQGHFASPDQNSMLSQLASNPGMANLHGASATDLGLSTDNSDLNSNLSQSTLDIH
Chain of p300-CH1 (cysteine-histidine rich 1 domain of human coactivator protein p300, amino acid residues 323-423) (human) (Q09472 323-423 limits assumed): as the sequence (Q09472 323-423 limits assumed) above
Chain of coactivator protein p300 (or the homologous CREB binding protein, CBP) (human), Q09472 (Q09472 2-2414 limits assumed): as the sequence (Q09472 2-2414 limits assumed) above

Binder | expression levels of VEGF, qRT-PCR, hypoxic HeLa cells (% reduction at 10 µM) [1] | expression levels of VEGF, qRT-PCR, hypoxic HeLa cells (% reduction at 50 µM) [1] | inhibition of SLC2A1 (GLUT1) expression, qRT-PCR, hypoxic HeLa cells [1] [%] | luciferase expression, HRE-luciferase reporter in MDA-MB-231-HRE-Luc cells under hypoxia (% reduction at 50 µM) [1] | fold increase in binding affinity over peptide 3 [2] [fold] | Kd [3] [µM] | Ki [4] [µM] | IC50 (read off the curve) [5] [µM] | downregulation of SLC2A1 and LOX expression, qRT-PCR, hypoxic HeLa cells [6] [%] | Kd [7] [µM]
B1 | 50 | > 60 | 50 to 60 | 25 | 9 | 0.69 | 3.5 | 10 |  | 
ELARALDQ (modifications not checked) [Peptide 3] |  |  |  |  |  |  |  |  | 25 | 6.06

— US20150065436A1, “INHIBITING INTERACTION BETWEEN HIF-1ALPHA AND p300/CBP WITH HYDROGEN BOND SURROGATE-BASED HELICES” (UNIVERSITY OF SOUTHERN CALIFORNIA, priority 2013, published 2015)
